Biological target: FGFR3 of chick prechordal mesoderm cells (chick (endogenous in prechordal mesoderm cells)) (UniProt P18460)
Assay: immunostaining of cells or tissue; isolated st6 chick prechordal mesoderm cells cultured until st8, incubated with proNodal-FLAG, detected with anti-FLAG; non-targeted cells

Sequence of UniProt P18460 (P18460 20-806): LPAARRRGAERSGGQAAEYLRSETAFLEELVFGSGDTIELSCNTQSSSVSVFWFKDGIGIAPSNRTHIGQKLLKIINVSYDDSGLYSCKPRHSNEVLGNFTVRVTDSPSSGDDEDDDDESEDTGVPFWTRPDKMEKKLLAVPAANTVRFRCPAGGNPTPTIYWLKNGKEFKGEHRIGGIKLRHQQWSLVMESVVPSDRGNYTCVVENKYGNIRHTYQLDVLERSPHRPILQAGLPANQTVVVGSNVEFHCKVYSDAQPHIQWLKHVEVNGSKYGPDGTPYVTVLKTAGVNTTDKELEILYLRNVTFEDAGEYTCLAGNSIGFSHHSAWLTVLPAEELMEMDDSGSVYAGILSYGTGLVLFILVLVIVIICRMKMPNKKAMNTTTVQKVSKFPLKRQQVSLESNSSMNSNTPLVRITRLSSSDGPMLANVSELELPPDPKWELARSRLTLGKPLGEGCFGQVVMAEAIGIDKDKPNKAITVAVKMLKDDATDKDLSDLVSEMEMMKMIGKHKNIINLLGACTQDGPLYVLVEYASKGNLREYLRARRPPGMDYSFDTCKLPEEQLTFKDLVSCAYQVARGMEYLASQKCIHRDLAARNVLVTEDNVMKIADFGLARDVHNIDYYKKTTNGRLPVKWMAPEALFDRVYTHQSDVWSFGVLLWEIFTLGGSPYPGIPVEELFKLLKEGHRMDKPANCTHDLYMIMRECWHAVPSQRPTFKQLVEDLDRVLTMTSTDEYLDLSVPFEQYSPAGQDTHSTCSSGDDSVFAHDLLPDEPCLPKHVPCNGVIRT

Work on “recombinant proNodal (recombinant Nodal cleavage mutant resistant to proprotein convertases), FLAG-tagged (from UniProt P43021 27-354) (ligand)” yielded a percent of DAPI+ nuclei closely associated with anti-FLAG of 79%.
